One block for each binder: values may come before it. Starred links: 1 amine or outer side, 2 acyl side, 3 side chain; linkers in the order of their positions; H or OH if unused. Positions of bridges follow the written chain, without caps; N, C: chain ends. Non-standard residues stand in square brackets, D forms with d. No end group written: not given here. 2‑Acetamido‑1‑Methyl‑Glucuronyl = 2-Acetamido-1-methyl-glucuronyl N-terminal group; Ecp = His(tau-4-methoxybenzyl), COc1ccc(Cn2cnc(C[C@H](N[*:1])C(=O)[*:2])c2)cc1; XX1 = 2-Amino-3-(4-piperidinyl)propionic acid; Ebd = Cys(Et), CCSC[C@H](N[*:1])C(=O)[*:2]; Phe(4-Me) = Cc1ccc(C[C@H](N)C(=O)O)cc1; 2Nal = N[C@@H](Cc1ccc2ccccc2c1)C(=O)O; XX2 = 4-guanidyl-piperidinyl-alanine; d(hLeu) = CC(C)CC[C@@H](N)C(=O)O; 2Thi = N[C@@H](Cc1cccs1)C(=O)O; Cha = N[C@@H](CC1CCCCC1)C(=O)O; dCha = N[C@H](CC1CCCCC1)C(=O)O; Chg = N[C@H](C(=O)O)C1CCCCC1; hLeu = CC(C)CC[C@H](N)C(=O)O; dNle = CCCC[C@@H](N)C(=O)O; Eag = 2-Propargylglycine; Nle = CCCC[C@H](N)C(=O)O; Orn = NCCC[C@H](N)C(=O)O; Dab = NCC[C@H](N)C(=O)O
Target: T1, human C5aR (CD88) (human, UniProt P21730 1-350)
T1 sequence (looked up): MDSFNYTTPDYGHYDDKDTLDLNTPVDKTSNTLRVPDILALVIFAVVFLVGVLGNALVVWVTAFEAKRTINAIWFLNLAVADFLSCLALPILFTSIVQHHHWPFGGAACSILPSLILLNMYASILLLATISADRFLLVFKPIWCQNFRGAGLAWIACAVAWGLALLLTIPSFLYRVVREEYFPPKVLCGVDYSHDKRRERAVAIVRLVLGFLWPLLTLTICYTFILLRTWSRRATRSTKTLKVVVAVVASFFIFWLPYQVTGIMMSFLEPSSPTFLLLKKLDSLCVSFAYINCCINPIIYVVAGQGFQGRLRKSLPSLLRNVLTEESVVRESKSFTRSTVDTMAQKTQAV
Experiment: cell-based or functional assay

Binder: FXPXWX (not fully specified; Ac-; Orn2; cha4 (D); Cit6; cyclic [2-6]) [Ac-Phe-[Orn-Pro-cha-Trp-Cit]]
- IC50 activity group, enzyme release assay: ≤ 2000 nM

B3: Ac-Phe-[Orn-Pro-cha-Trp-Hle] (peptide)
peptide: Ac-F[Orn]P[dCha]W[hLeu]
modifications: lactam (positions not given here); not fully specified (bridges); printed as Ac-Phe-[Orn-Pro-cha-Trp-Hle]
- IC50 activity group, enzyme release assay: ≤ 50 nM

Binder: FXPXWR (not fully specified; Ac-; Orn2; cha4 (D); Arg(CH2CH2)6; cyclic [2-6]) [Ac-Phe-[Orn-Pro-cha-Trp-Arg(CH2CH2)]]
- IC50 activity group, enzyme release assay: ≤ 2000 nM

B5: Ac-Phe-[Orn-Pro-cha-Trp-Dab] (peptide)
peptide: Ac-F[Orn]P[dCha]W[Dab]
modifications: lactam (positions not given here); not fully specified (bridges); printed as Ac-Phe-[Orn-Pro-cha-Trp-Dab]
- IC50 activity group, enzyme release assay: ≤ 200 nM

B6: Ac-Phe-[Orn-Pro-cha-Trp-Cha] (peptide)
peptide: Ac-F[Orn]P[dCha]W[Cha]
modifications: lactam (positions not given here); not fully specified (bridges); printed as Ac-Phe-[Orn-Pro-cha-Trp-Cha]
- IC50 activity group, enzyme release assay: ≤ 200 nM

Binder: Ac-F[Orn]P[dHch]WF-OH [Ac-Phe-Orn-Pro-hch-Trp-Phe-OH]
- IC50 activity group, enzyme release assay: ≤ 200 nM

B7: Ac-Phe-[Orn-Pro-cha-Trp-Chg] (peptide)
peptide: Ac-F[Orn]P[dCha]W[Chg]
modifications: lactam (positions not given here); not fully specified (bridges); printed as Ac-Phe-[Orn-Pro-cha-Trp-Chg]
- IC50 activity group, enzyme release assay: ≤ 200 nM

B10: Ac-Phe-[Orn-Pro-cha-Trp-Ebd] (peptide)
peptide: Ac-F[Orn]P[dCha]W[Ebd]
modifications: lactam (positions not given here); not fully specified (bridges); printed as Ac-Phe-[Orn-Pro-cha-Trp-Ebd]
- IC50 activity group, enzyme release assay: ≤ 50 nM

Binder: {Ph‑CH2}-[Orn]P[dCha]W[Nle] (lactam 1-C) [Ph-CH2-[Orn-Pro-cha-Trp-Nle]]
- IC50 activity group, enzyme release assay: ≤ 50 nM

B11: Ac-Phe-[Orn-Pro-cha-Trp-Eag] (peptide)
peptide: Ac-F[Orn]P[dCha]W[Eag]
modifications: lactam (positions not given here); not fully specified (bridges); printed as Ac-Phe-[Orn-Pro-cha-Trp-Eag]
- IC50 activity group, enzyme release assay: ≤ 10 nM

Binder: FXPXWX (not fully specified; Ac-; Orn2; cha4 (D); Har6; cyclic [2-6]) [Ac-Phe-[Orn-Pro-cha-Trp-Har]]
- IC50 activity group, enzyme release assay: ≤ 2000 nM

B12: Ac-Phe-[Orn-Pro-cha-Trp-2Ni] (peptide)
peptide: Ac-F[Orn]P[dCha]W[2Nal]
modifications: lactam (positions not given here); not fully specified (bridges); printed as Ac-Phe-[Orn-Pro-cha-Trp-2Ni]
- IC50 activity group, enzyme release assay: ≤ 200 nM

B13: Ac-Phe-[Orn-Pro-cha-Trp-Leu] (peptide)
peptide: Ac-F[Orn]P[dCha]WL
modifications: lactam (positions not given here); not fully specified (bridges); printed as Ac-Phe-[Orn-Pro-cha-Trp-Leu]
- IC50 activity group, enzyme release assay: ≤ 200 nM

B14: Ac-Phe-[Orn-Pro-cha-Trp-Met] (peptide)
peptide: Ac-F[Orn]P[dCha]WM
modifications: lactam (positions not given here); not fully specified (bridges); printed as Ac-Phe-[Orn-Pro-cha-Trp-Met]
- IC50 activity group, enzyme release assay: ≤ 200 nM

B15: Ac-Phe-[Orn-Pro-cha-Trp-Ecp] (peptide)
peptide: Ac-F[Orn]P[dCha]W[Ecp]
modifications: lactam (positions not given here); not fully specified (bridges); printed as Ac-Phe-[Orn-Pro-cha-Trp-Ecp]
- IC50 activity group, enzyme release assay: ≤ 2000 nM

B16: Ac-Phe-[Orn-Pro-cha-Trp-Ala] (peptide)
peptide: Ac-F[Orn]P[dCha]WA
modifications: lactam (positions not given here); not fully specified (bridges); printed as Ac-Phe-[Orn-Pro-cha-Trp-Ala]
- IC50 activity group, enzyme release assay: > 2000 nM

The next lines start with the values.

- IC50 activity group, enzyme release assay: ≤ 50 nM
B1: Ac-Phe-[Orn-Pro-cha-Trp-Thi] (peptide)
peptide: Ac-F[Orn]P[dCha]W[2Thi]
modifications: lactam (positions not given here); not fully specified (bridges); printed as Ac-Phe-[Orn-Pro-cha-Trp-Thi]

- IC50 activity group, enzyme release assay: ≤ 50 nM
B2: Ac-Phe-[Orn-Pro-cha-Trp-Pmf] (peptide)
peptide: Ac-F[Orn]P[dCha]W[Phe(4-Me)]
modifications: lactam (positions not given here); not fully specified (bridges); printed as Ac-Phe-[Orn-Pro-cha-Trp-Pmf]

- IC50 activity group, enzyme release assay: ≤ 50 nM
B4: Ac-Phe-[Orn-Pro-cha-Trp-Tyr] (peptide)
peptide: Ac-F[Orn]P[dCha]WY
modifications: lactam (positions not given here); not fully specified (bridges); printed as Ac-Phe-[Orn-Pro-cha-Trp-Tyr]

- IC50 activity group, enzyme release assay: ≤ 200 nM
Binder: Ac-F[Orn]P[dCha]W[dNle] (lactam 2-C (inferred)) [Ac-Phe-[Orn-Pro-cha-Trp-nle]]

- IC50 activity group, enzyme release assay: ≤ 50 nM
Binder: {Ph‑CH2}-[Orn]P[dCha]WF (lactam 1-C) [Ph-CH2-[Orn-Pro-cha-Trp-Phe]]

- IC50 activity group, enzyme release assay: > 2000 nM
B8: Ac-Phe-[Orn-Pro-cha-Trp-XX2] (peptide)
peptide: Ac-F[Orn]P[dCha]W[XX2]
modifications: lactam (positions not given here); not fully specified (bridges); printed as Ac-Phe-[Orn-Pro-cha-Trp-XX2]

- IC50 activity group, enzyme release assay: ≤ 50 nM
B9: Ac-Phe-[Orn-Pro-cha-Trp-Phe] (peptide)
peptide: Ac-F[Orn]P[dCha]WF
modifications: lactam (positions not given here); not fully specified (bridges); printed as Ac-Phe-[Orn-Pro-cha-Trp-Phe]

- IC50 activity group, enzyme release assay: ≤ 50 nM
Binder: Ac-F[Orn]P[d(hLeu)]W[Nle] (lactam 2-C (inferred)) [Ac-Phe-[Orn-Pro-hle-Trp-Nle]]

- IC50 activity group, enzyme release assay: ≤ 50 nM
Binder: {2‑Acetamido‑1‑Methyl‑Glucuronyl}-F[Orn]P[dCha]W[Nle] (lactam 2-C) [X-Phe-[Orn-Pro-cha-Trp-Nle]; X = 2-Acetamido-1-Methyl-Glucuronyl]

- IC50 activity group, enzyme release assay: ≤ 50 nM
Binder: {Ph‑CH(OH)‑CH2‑CO}-[Orn]P[dCha]W[Nle] (lactam 1-C) [Ph-CH(OH)-CH2-CO-[Orn-Pro-cha-Trp-Nle]]

- IC50 activity group, enzyme release assay: > 2000 nM
B17: Ac-Phe-[Orn-Pro-cha-Trp-XX1] (peptide)
peptide: Ac-F[Orn]P[dCha]W[XX1]
modifications: lactam (positions not given here); not fully specified (bridges); printed as Ac-Phe-[Orn-Pro-cha-Trp-XX1]

— US7727960B2, “C5a receptor antagonists” (Jerini AG, priority 2003, dated 2010)
